{"source": "patent US20260167702A1", "about": "(Dana-Farber, published 2026)", "key": {"[1]": {"target": "T1, recombinant full length HA of A/Vietnam/1203/04 (H5-VN04) (influenza A virus A/Vietnam/1203/04 …)"}, "[2]": {"target": "recombinant full length HA of A/mallard/Astrakhan/263/82 (H14-AS82) (influenza A virus …, UniProt P26136 18-568)", "experiment": "BLI, purified recombinant HAs; antibody format not stated here"}, "[3]": {"target": "T2, recombinant full length HA of A/Perth/16/09 (H3-PE09) (influenza A virus A/Perth/16/09 (H3N2))"}, "[4]": {"target": "T1, recombinant full length HA of …", "remark": "listed apart in the source"}, "[5]": {"target": "T2, recombinant full length HA of …", "experiment": "BLI, IgG1 ('further experiments', FIGS. 15A and 15B)"}, "[6]": {"target": "T1, recombinant full length HA of …", "experiment": "BLI, IgG1 (legend of FIG. 15)"}, "[7]": {"target": "full length HA of A/Vietnam/1203/04 (H5-VN04) expressed from pcDNA3.1 (on 293T cells and on pseudotyped … (influenza A virus A/Vietnam/1203/04))", "experiment": "cell-based or functional assay"}, "[8]": {"target": "T2, recombinant full length HA of …", "experiment": "BLI (Octet RED96), IgG1, recombinant HA"}, "[9]": {"target": "T1, recombinant full length HA of …", "experiment": "BLI (Octet RED96), IgG1, recombinant HA"}}, "note": "Like-named read-outs stand apart in the source and are kept apart here."}
{"binder": "3I14 IgG1 (wild type) (antibody, V domains shown) VH: QVQLLESGGGVVQPGRSLRLSCAASGFTFSNYGMHWVRQAPGKGLEWVAIISFDGSKKYYANSVKGRSTISRDNSKNTLSLQMNSLGPEDTALYYCAKLPSPYYFDSRFVWVAASAFHFWGQGILVTVSS VL: NFMLTQPPSASGTPGQRVTISCSGSSSNIGGNTVHWFQQLPGTAPKLLIYTNSLRPSGVPDRFSGSKSGTSASLAISGLQSEDEADYYCAAWDDSLNGQVFGGGTKLTVL", "values": [{"measurement": "Kd", "setting": "[1]", "result": "> 1", "unit": "nM"}, {"measurement": "Kd", "setting": "[2]", "result": "< 0.1", "unit": "nM"}, {"measurement": "Kd", "setting": "[3]", "result": 0.263, "unit": "nM"}, {"measurement": "koff", "setting": "[3]", "result": "3.99e-05", "unit": "s⁻¹"}, {"measurement": "kon", "setting": "[3]", "result": 152000, "unit": "M⁻¹ s⁻¹"}, {"measurement": "Kd", "setting": "[4]", "result": 1.02, "unit": "nM"}, {"measurement": "koff", "setting": "[4]", "result": 0.000383, "unit": "s⁻¹"}, {"measurement": "kon", "setting": "[4]", "result": 375000, "unit": "M⁻¹ s⁻¹"}, {"measurement": "Kd", "setting": "[5]", "result": 1.96, "unit": "nM"}, {"measurement": "Kd", "setting": "[6]", "result": 1.15, "unit": "nM"}, {"measurement": "IC50, neutralization of H5-VN04 pseudovirus", "setting": "[7]", "result": 0.0816, "unit": "µg/mL"}, {"measurement": "IC50, neutralization of pseudovirus", "setting": "[7]", "result": 2.14, "unit": "µg/mL"}, {"measurement": "Kd", "setting": "[8]", "result": 0.263, "unit": "nM"}, {"measurement": "koff", "setting": "[8]", "result": "3.99e-05", "unit": "s⁻¹"}, {"measurement": "kon", "setting": "[8]", "result": 152000, "unit": "M⁻¹ s⁻¹"}, {"measurement": "Kd", "setting": "[9]", "result": 1.02, "unit": "nM"}, {"measurement": "koff", "setting": "[9]", "result": 0.000387, "unit": "s⁻¹"}, {"measurement": "kon", "setting": "[9]", "result": 327000, "unit": "M⁻¹ s⁻¹"}]}
